Reference: patent publication US20070254316

Assays:
[1] = system: T1, R5-XC1 peptide (free peptide, CQKHHNYLC)
T1 sequence: CQKHHNYLC

[2] = system: T2, R4-C9 peptide (free peptide, CTLVPHTRC)
T2 sequence: CTLVPHTRC

For “xPSM (extracellular portion of human PSMA, Tag-xPSM digested with enterokinase, no affinity tags)”, the “NAALADase activity (hydrolysis of N-acetyl-L-aspartyl-L-[3,4-3H]glutamate by purified xPSM)” value [1] was “two selected PSMA binding peptides enhanced, rather than inhibited, enzyme activity in a dose dependant manner” and the “NAALADase activity (hydrolysis of N-acetyl-L-aspartyl-L-[3,4-3H]glutamate by purified xPSM)” value [2] was “two selected PSMA binding peptides enhanced, rather than inhibited, enzyme activity in a dose dependant manner”.
